The values below come from patent US20260070975A1 (SANTA ANA BIO, published 2026).

Assay [1] has as its target T1, Human siglec-6 (BLI analyte) (human, UniProt O43699 27-347, limits assumed).
T1 construct: also called human siglect-6
Nature of the assay: BLI (Octet), antibody on capture sensor. As to the method: Further, binding affinities of siglec-6 antibodies to human siglec-6 were measured by […] using an Octect instrument. Briefly, capture sensors were loaded with test antibodies with 3-fold dilutions. The association and dissociation rates to were determined and used to calculate the equilibrium dissociation constant KD (Table 6).
(In BLI a coated tip is dipped into the sample, and binding shifts an interference pattern.)

Assay [2] deals with T2, siglec 15 expressed on HEK293 cells (UniProt Q6ZMC9 20-328, limits assumed).
T2 construct: whole, on cells; also called Siglec-6 family member
T2 sequence (looked up): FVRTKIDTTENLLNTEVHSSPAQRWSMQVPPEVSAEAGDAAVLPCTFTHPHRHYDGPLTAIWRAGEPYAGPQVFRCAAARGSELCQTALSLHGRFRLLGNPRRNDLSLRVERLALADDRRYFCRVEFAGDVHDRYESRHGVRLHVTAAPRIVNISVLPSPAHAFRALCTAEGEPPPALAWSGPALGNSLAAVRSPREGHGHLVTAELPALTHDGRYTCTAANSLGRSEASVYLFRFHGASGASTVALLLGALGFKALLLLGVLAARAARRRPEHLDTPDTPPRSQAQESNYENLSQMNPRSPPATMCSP
Nature of the assay: flow cytometry on HEK293 cells expressing the target. The protocol:
(§1) Cultured HEK293 cells expressing human siglec-6, cynomolgus siglec-6, or siglec 6 family members were resuspended in FACS Blocking Buffer (PBS+10% normal human serum) for 30 minutes. Following washing, cells were incubated with siglec-6 antibodies in FACS Buffer (PBS+0.5% bovine serum albumin+0.09% sodium azide) and incubated at 4° C. for 30 minutes, washed and incubated with PE-labeled anti-human secondary antibody. Cells were incubated at 4° C. for 30 minutes in the dark. Following washing, cytofluorimetric analysis was conducted using a BD FACS Symphony A3 (BD Biosciences). Cells were sorted by scatter properties and separated for single cell analysis using side scatter width vs side scatter area. Antibody binding to cells was quantitated by measuring fluorescent emissions of excitation wavelength of 561 nm using a 586/15 nm filter. Data analysis was performed using FlowJo Software.
In general terms: In flow cytometry, cells or beads pass a laser one at a time.

In assay [3] the target is T3, siglec 5 expressed on HEK293 cells (UniProt O15389 17-551, limits assumed).
T3 construct: whole, on cells; also called Siglec-6 family member
T3 sequence (looked up): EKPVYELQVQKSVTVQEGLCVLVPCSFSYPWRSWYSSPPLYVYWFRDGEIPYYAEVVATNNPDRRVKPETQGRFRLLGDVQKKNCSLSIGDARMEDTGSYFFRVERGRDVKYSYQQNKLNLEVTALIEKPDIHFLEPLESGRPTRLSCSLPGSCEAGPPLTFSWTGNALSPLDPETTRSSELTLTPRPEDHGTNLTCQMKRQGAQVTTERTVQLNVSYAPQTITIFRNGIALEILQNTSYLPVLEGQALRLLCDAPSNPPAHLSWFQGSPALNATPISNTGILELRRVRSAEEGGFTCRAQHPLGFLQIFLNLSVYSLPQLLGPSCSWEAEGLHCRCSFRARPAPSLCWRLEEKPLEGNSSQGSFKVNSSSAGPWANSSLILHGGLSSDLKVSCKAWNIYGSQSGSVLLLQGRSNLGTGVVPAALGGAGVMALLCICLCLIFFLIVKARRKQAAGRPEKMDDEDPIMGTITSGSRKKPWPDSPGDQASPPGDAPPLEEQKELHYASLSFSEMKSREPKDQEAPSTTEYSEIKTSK
The description is as above. As to the method:
as §1

The target in assay [4] is T4, siglec 9 expressed on HEK293 cells (UniProt Q9Y336 18-463, limits assumed).
T4 construct: whole, on cells; also called Siglec-6 family member
T4 sequence (Q9Y336 18-463 limits assumed): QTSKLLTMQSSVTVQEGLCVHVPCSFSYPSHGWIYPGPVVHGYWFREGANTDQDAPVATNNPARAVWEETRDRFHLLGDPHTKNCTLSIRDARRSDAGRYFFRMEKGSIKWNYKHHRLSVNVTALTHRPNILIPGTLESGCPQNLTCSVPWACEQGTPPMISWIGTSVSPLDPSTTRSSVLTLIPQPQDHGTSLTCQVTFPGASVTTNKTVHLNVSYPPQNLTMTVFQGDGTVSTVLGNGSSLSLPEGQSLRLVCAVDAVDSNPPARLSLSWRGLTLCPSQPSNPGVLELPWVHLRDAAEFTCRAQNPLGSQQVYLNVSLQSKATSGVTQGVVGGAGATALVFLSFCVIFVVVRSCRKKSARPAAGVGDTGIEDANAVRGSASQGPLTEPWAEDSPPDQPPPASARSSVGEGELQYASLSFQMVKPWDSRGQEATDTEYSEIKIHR
The assay is described as above. The protocol: as §1

Assay [5] concerns the target T5, siglec 14 expressed on HEK293 cells (UniProt Q08ET2 17-396, limits assumed).
T5 construct: whole, on cells; also called Siglec-6 family member
T5 sequence (looked up): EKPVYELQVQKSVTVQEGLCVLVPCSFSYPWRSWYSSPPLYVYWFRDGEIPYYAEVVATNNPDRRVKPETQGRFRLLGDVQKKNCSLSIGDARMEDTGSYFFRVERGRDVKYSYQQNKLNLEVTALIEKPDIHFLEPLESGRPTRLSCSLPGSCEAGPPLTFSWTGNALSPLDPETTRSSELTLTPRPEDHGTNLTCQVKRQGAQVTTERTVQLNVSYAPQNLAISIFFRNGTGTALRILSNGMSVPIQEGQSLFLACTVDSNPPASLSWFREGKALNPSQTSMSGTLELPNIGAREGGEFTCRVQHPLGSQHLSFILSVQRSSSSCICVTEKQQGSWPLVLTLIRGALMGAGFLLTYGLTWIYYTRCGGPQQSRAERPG
The description is as above. As to the method: as §1

Assay [6] has as its target T6, siglec 11 expressed on HEK293 cells (UniProt Q96RL6 28-698, limits assumed).
T6 construct: whole, on cells; also called Siglec-6 family member
T6 sequence (looked up): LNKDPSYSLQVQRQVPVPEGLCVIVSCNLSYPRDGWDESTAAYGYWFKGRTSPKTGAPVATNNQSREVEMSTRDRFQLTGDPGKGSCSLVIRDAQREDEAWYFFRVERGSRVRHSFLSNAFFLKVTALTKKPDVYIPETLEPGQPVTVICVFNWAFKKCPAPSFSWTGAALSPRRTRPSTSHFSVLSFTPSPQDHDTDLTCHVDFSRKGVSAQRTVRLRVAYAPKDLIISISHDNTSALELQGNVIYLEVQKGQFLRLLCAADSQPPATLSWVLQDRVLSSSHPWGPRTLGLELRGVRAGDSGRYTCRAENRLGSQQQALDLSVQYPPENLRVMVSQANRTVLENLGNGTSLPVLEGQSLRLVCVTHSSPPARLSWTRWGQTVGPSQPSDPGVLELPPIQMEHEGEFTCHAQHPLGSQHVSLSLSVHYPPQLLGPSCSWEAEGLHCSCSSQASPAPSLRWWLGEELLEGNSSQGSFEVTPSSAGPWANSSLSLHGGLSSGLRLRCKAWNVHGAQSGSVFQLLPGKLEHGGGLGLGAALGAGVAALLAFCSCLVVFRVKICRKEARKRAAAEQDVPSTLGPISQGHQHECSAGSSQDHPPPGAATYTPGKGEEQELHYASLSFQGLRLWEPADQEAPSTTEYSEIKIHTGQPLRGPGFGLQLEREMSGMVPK
The assay is described as above. As to the method:
as §1

The target of assay [7] is T7, siglec 7 expressed on HEK293 cells (UniProt Q9Y286 19-467, limits assumed).
T7 construct: whole, on cells; also called Siglec-6 family member
T7 sequence (Q9Y286 19-467 limits assumed): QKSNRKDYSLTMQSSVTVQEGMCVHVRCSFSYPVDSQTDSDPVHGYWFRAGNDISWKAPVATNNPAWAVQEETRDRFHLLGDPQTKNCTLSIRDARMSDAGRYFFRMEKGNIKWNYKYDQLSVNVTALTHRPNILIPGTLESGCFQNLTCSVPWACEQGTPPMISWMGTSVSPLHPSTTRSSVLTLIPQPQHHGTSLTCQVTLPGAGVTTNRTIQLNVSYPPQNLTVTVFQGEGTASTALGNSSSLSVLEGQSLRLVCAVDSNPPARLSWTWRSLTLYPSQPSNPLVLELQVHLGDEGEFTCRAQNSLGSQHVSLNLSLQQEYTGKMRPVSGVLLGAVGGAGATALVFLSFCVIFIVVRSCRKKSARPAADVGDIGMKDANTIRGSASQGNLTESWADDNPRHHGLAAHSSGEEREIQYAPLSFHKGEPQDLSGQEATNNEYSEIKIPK
Described as above. As to the method: as §1

In general, Kd refers to the free concentration of one partner at which half of the binding sites on the other are occupied at equilibrium, for simple one-to-one binding.

T1 sequence (O43699 27-347 limits assumed): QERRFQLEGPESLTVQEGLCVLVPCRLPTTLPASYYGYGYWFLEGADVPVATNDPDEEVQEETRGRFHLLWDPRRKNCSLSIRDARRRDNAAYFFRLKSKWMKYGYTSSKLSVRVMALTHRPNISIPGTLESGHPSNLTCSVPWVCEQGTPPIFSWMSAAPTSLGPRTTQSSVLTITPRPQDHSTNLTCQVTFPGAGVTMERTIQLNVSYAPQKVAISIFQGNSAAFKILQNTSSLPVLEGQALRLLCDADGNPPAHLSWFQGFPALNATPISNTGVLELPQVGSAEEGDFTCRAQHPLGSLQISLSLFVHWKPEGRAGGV

B1: hRND-2 (antibody, human IgG1, kappa, V domains shown)
VH: QVQLVQSGAEVKKPGASVKVSCKASGYAFTSYWMHWVRQAPGQRLEWMGEIYPTNGGTTYAQKFQGRVTMTVDKSTSTAYMELSRLRSDDTAVYYCTIEDFYAMDYWGQGTTVTVSS
VL: DIVMTQTPLSLSVTPGQPASISCKSSQSLLDSDGKTSLNWLLQKPGQSPQRLIYLVSKLDSGVPDRFSGSGSGTDFTLKISRVEAEDVGVYYCWQGTHFPYTFGQGTKLEIKR
notes: also called humanized RND-2; hRND-H2 / hRND-L3; copies: 2 + 2
In the case of B1, the Kd in assay [1] came to 0.17 nM. Further, the binding result in assay [2], in assay [3], in assay [4], in assay [5], in assay [6] and in assay [7] was “no binding” throughout.

B2: hRND-4 (antibody, human IgG1, kappa, V domains shown)
VH: QVQLVQSGAEVKKPGASVKVSCKASGYAFTSYWMHWVRQAPGQRLEWMGEIYPTNGGTTYNEKFKRRVTMTVDKSTSTAYMELSRLRSDDTAVYYCTIEDFYAMDYWGQGTTVTVSS
VL: DIVMTQTPLSLSVTPGQPASISCKSSQSLLDSDGKTSLNWLLQKPGQSPQRLIYLVSKLDSGVPDRFSGSGSGTDFTLKISRVEAEDVGVYYCWQGTHFPYTFGQGTKLEIKR
notes: also called humanized RND-4; hRND-H2b / hRND-L3; copies: 2 + 2
With B2, the affinity in assay [1], expressed as Kd, was 0.315 nM. The binding result in assay [2], in assay [3], in assay [4], in assay [5], in assay [6] and in assay [7] was “no binding” in each case.

B3: hRND-3 (antibody, human IgG1, kappa, V domains shown)
VH: QVQLVQSGAEVKKPGASVKLSCKASGYAFTSYWMHWVRQAPGQRLEWIGEIYPTNGGTTYAQKFQGRATLTVDKSTSTAYMELSRLRSDDTAVYYCTIEDFYAMDYWGQGTTVTVSS
VL: DIVMTQTPLSLSVTPGQPASISCKSSQSLLDSDGKTSLNWLLQKPGQSPQRLIYLVSKLDSGVPDRFSGSGSGTDFTLKISRVEAEDVGVYYCWQGTHFPYTFGQGTKLEIKR
notes: also called humanized RND-3; hRND-H3 / hRND-L3; copies: 2 + 2
For the molecule B3, in assay [1], the Kd came to 0.137 nM. Also, the binding result in assay [2], in assay [3], in assay [4], in assay [5], in assay [6] and in assay [7] was “no binding” each time.

B4: hRND-5 (antibody, human IgG1, kappa, V domains shown)
VH: QVQLVQSGAEVKKPGASVKLSCKASGYAFTSYWMHWVRQAPGQRLEWIGEIYPTNGGTTYNEKFKRRATLTVDKSTSTAYMELSRLRSDDTAVYYCTIEDFYAMDYWGQGTTVTVSS
VL: DIVMTQTPLSLSVTPGQPASISCKSSQSLLDSDGKTSLNWLLQKPGQSPQRLIYLVSKLDSGVPDRFSGSGSGTDFTLKISRVEAEDVGVYYCWQGTHFPYTFGQGTKLEIKR
notes: also called humanized RND-5; hRND-H3b / hRND-L3; copies: 2 + 2
The molecule B4 registered a Kd in assay [1] of 0.166 nM. The binding result in assay [2], in assay [3], in assay [4], in assay [5], in assay [6] and in assay [7] was “no binding” each time.
